Reference: patent publication US20170145391

Legend:
4E-BP1 (Calbiochem) = 4E-BP1 (Calbiochem) (UniProt Q13541)
His-S6K1C = His-S6K1C (UniProt P23443)
Sequence of His-S6K1C (P23443 332-502): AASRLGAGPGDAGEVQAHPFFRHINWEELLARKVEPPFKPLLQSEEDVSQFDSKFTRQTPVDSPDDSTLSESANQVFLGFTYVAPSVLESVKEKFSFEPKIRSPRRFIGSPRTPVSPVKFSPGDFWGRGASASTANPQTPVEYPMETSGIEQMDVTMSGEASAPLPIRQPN

Sequence of 4E-BP1 (Calbiochem) (Q13541 whole entry): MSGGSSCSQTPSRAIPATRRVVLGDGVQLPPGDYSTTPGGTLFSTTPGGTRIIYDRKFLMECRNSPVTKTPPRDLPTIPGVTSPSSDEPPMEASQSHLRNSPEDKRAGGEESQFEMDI

## FLAG-mTORα
4E-BP1 (Calbiochem)
  mTOR in vitro kinase assay; immunoblot with phosphospecific antibody pS65-4E-BP1: mTORβ can phosphorylate both S6K1 and 4E-BP1 in vitro, but to a lesser extent than mTORα
His-S6K1C
  mTOR in vitro kinase assay; immunoblot with phosphospecific antibody pT389-S6K1: mTORβ can phosphorylate both S6K1 and 4E-BP1 in vitro, but to a lesser extent than mTORα
